The record followed here is patent US7534937B2, “Genes conferring herbicide resistance” (Athenix Corporation, priority 2004, dated 2009).

The experiment relates to E. coli strain DH5α. The experiment is described as follows: Growth (OD600) in M63 broth containing glyphosate of cells carrying pAX299 (grg8). To be noted: for OD600: 37° C., about 46 hours, means ± standard deviations, triplicate cultures. The class given is cell-based. Here is the method:
The grg8 open reading frame (ORF) was amplified by PCR, cloned into the plasmid vector pCR-Blunt-II from Invitrogen, and transformed into E. coli strain DH5α. Plasmid DNA was prepared and the presence and orientation of the inserts were determined by restriction digest. One clone contained the ORF in the forward orientation with respect to the lac promoter in the vector. This plasmid was named pAX299. The insert was sequenced and the plasmid was tested for the ability to confer resistance to glyphosate.
pAX299 was tested for the ability to grow on M63 medium in the presence of glyphosate using cells containing empty vector as a control. The plasmid pAX296 in host strain DH5α was used as a negative control. This plasmid contains a fragment of tobacco genomic DNA cloned into the vector pCR-Blunt-II. Starter cultures of the two strains were grown in M63 broth with 50 μg/ml kanamycin to maintain the plasmid. The starter cultures were diluted to approximately equal cell densities, as determined by measuring OD600, then diluted 1 to 200 into 3 ml of M63 broth containing 0 to 200 mM glyphosate. Triplicate 3 ml cultures of each strain in each concentration were grown. Cultures were grown at 37° C. with constant shaking. After about 46 hours, 0.3 ml aliquots were withdrawn and the OD600 was measured. Values represent means + standard deviations.

B1: grg8: Glyphosate resistance gene from strain ATX4145 encoding a novel non-Class II EPSP synthase (SEQ ID NO:3); ORF carried in plasmid pAX299 (protein, listed as Brevundomonas vesicularis)
chain: MMMGRAKLTIIPPGKPLTGRAMPPGSKSITNRALLLAGLAKGTSRLTGALKSDDTRYMAEALRAMGVTIDEPDDTTFIVKGSGKLQPPAAPLFLGNAGTATRFLTAAAALVDGKVIVDGDAHMRKRPIGPLVDALRSLGIDASAETGCPPVTINGTGRFEASRVQIDGGLSSQYVSALLMMAAGGDRAVDVELLGEHIGALGYIDLTVAAMRAFGAKVERVSPVAWRVEPTGYHAADFVIEPDASAATYLWAAEVLSGGKIDLGTPAEQFSQPDAKAYDLISKFPHLPAVIDGSQMQDAIPTLAVLAAFNEMPVRFVGIENLRVKECDRIRALSSGLSRIVPNLGTEEGDDLIIASDPSLAGKILTAEIDSFADHRIAMSFALAGLKIGGITILDPDCVAKTFPSYWNVLSSLGVAYED
For the molecule B1, the OD600 runs as follows: (0 mM glyphosate) 1.18 ± 0.029; (10 mM glyphosate) 1.15 ± 0.018; (20 mM glyphosate) 1.10 ± 0.043; (50 mM glyphosate) 1.20 ± 0.037; (100 mM glyphosate) 1.31 ± 0.024; (200 mM glyphosate) 0.05 ± 0.004. For the same molecule, the “Glyphosate resistance (conclusion from Table 1)” value (0 to 200 mM glyphosate) was “confers resistance to high levels of glyphosate”.
